Assay results published in US20060263345A1, “Butyrylcholinesterase variant polypeptides with increased catalytic efficiency and methods of use” (priority 2003, published 2006).
Entries after “also recorded” stand apart in the source; their conditions may differ.

Assay: microtiter isotope tracer [3H]-cocaine hydrolysis assay of immobilized butyrylcholinesterase variants
Type: biochemical
Details: for cocaine hydrolysis activity compared to butyrylcholinesterase (in words): compared to human butyrylcholinesterase; for increase in cocaine hydrolysis activity relative to butyrylcholinesterase: compared to human butyrylcholinesterase SEQ ID NO: 44, approximate values; for Relative Activity of butyrylcholinesterase variants (WT = 1) with enhanced cocaine hydrolase activity: relative to wild-type = 1, catalytic efficiency (Vmax/Km), [3H]-cocaine microtiter assay
Description: At the conclusion of the isotope tracer assay, an aliquot of the reaction mix is acidified in order to take advantage of the solubility difference between the product and the substrate at pH 3.0. […] Prospect, Ill.) while [3H]-cocaine is not.
The supernatants isolated from each of the butyrylcholinesterase variant library clones contains variable butyrylcholinesterase enzyme concentrations.
At least three approaches are used to either increase the assay sensitivity or the assay signal.
Km values for (−)-cocaine are determined at 37° C. Vmax and Km values are calculated using Sigma Plot (Jandel Scientific, San Rafael, Calif.). The number of active sites of butyrylcholinesterase is determined by the method of residual activity using echothiopate iodide or diisopropyl fluorophosphates as titrants, as described previously by Masson et al., Biochemistry 36: 2266-2277 (1997). […] Purified human butyrylcholinesterase is used as the standard for the ELISA quantitation assay. The catalytic rate constant, kcat, is calculated by dividing Vmax by the concentration of active sites.

Molecule | cocaine hydrolysis activity compared to butyrylcholinesterase (in words) | increase in cocaine hydrolysis activity relative to butyrylcholinesterase | Relative Activity of butyrylcholinesterase variants (WT = 1) with enhanced cocaine hydrolase activity | also measured
Y332S (protein, Butyrylcholinesterase variant) EDDIIIATKNGKVRGMNLTVFGGTVTAFLGIPYAQPPLGRLRFKKPQSLTKWSDIWNATKYANSCCQNIDQSFPGFHGSEMWNPNTDLSEDCLYLNVWIPAPKPKNATVLIWIYGGGFQTGTSSLHVYDGKFLARVERVIVVSMNYRVGALGFLALPGNPEAPGNMGLFDQQLALQWVQKNIAAFGGNPKSVTLFGESAGAASVSLHLLSPGSHSLFTRAILQSGSFNAPWAVTSLYEARNRTLNLAKLTGCSRENETEIIKCLRNKDPQEILLNEAFVVPYGTPLSVNFGPTVDGDFLTDMPDILLELGQFKKTQILVGVNKDEGTAFLVSGAPGFSKDNNSIITRKEFQEGLKIFFPGVSEFGKESILFHYTDWVDDQRPENYREALGDVVGDYNFICPALEFTKKFSEWGNNAFFYYFEHRSSKLPWPEWMGVMHGYEIEFVFGLPLERRDNYTKAEEILSRSIVKRWANFAKYGNPNETQNNSTSWPVFKSTEQKYLTLNTESTRIMTKLRAQQCRFWTSFFPKVLEMTGNIDEAEWEWKAGFHRWNNYMMDWKNQFNDYTSKKESCVGL | increased cocaine hydrolysis activity |  |  | cocaine hydrolysis activity compared to butyrylcholinesterase (in words) (listed as SEQ ID NO: 20): increased cocaine hydrolysis activity; cocaine hydrolysis activity compared to butyrylcholinesterase (in words) (listed as Y322S): enhanced cocaine hydrolase activity
F227A (protein, Butyrylcholinesterase variant) EDDIIIATKNGKVRGMNLTVFGGTVTAFLGIPYAQPPLGRLRFKKPQSLTKWSDIWNATKYANSCCQNIDQSFPGFHGSEMWNPNTDLSEDCLYLNVWIPAPKPKNATVLIWIYGGGFQTGTSSLHVYDGKFLARVERVIVVSMNYRVGALGFLALPGNPEAPGNMGLFDQQLALQWVQKNIAAFGGNPKSVTLFGESAGAASVSLHLLSPGSHSLFTRAILQSGSANAPWAVTSLYEARNRTLNLAKLTGCSRENETEIIKCLRNKDPQEILLNEAFVVPYGTPLSVNFGPTVDGDFLTDMPDILLELGQFKKTQILVGVNKDEGTAFLVYGAPGFSKDNNSIITRKEFQEGLKIFFPGVSEFGKESILFHYTDWVDDQRPENYREALGDVVGDYNFICPALEFTKKFSEWGNNAFFYYFEHRSSKLPWPEWMGVMHGYEIEFVFGLPLERRDNYTKAEEILSRSIVKRWANFAKYGNPNETQNNSTSWPVFKSTEQKYLTLNTESTRIMTKLRAQQCRFWTSFFPKVLEMTGNIDEAEWEWKAGFHRWNNYMMDWKNQFNDYTSKKESCVGL | enhanced cocaine hydrolase activity | four | 4.1 | 
Y332P (protein, Butyrylcholinesterase variant) EDDIIIATKNGKVRGMNLTVFGGTVTAFLGIPYAQPPLGRLRFKKPQSLTKWSDIWNATKYANSCCQNIDQSFPGFHGSEMWNPNTDLSEDCLYLNVWIPAPKPKNATVLIWIYGGGFQTGTSSLHVYDGKFLARVERVIVVSMNYRVGALGFLALPGNPEAPGNMGLFDQQLALQWVQKNIAAFGGNPKSVTLFGESAGAASVSLHLLSPGSHSLFTRAILQSGSFNAPWAVTSLYEARNRTLNLAKLTGCSRENETEIIKCLRNKDPQEILLNEAFVVPYGTPLSVNFGPTVDGDFLTDMPDILLELGQFKKTQILVGVNKDEGTAFLVPGAPGFSKDNNSIITRKEFQEGLKIFFPGVSEFGKESILFHYTDWVDDQRPENYREALGDVVGDYNFICPALEFTKKFSEWGNNAFFYYFEHRSSKLPWPEWMGVMHGYEIEFVFGLPLERRDNYTKAEEILSRSIVKRWANFAKYGNPNETQNNSTSWPVFKSTEQKYLTLNTESTRIMTKLRAQQCRFWTSFFPKVLEMTGNIDEAEWEWKAGFHRWNNYMMDWKNQFNDYTSKKESCVGL | enhanced cocaine hydrolase activity; also recorded: increased cocaine hydrolysis activity |  |  | cocaine hydrolysis activity compared to butyrylcholinesterase (in words) (listed as SEQ ID NO: 24): increased cocaine hydrolysis activity
F227G (protein, Butyrylcholinesterase variant) EDDIIIATKNGKVRGMNLTVFGGTVTAFLGIPYAQPPLGRLRFKKPQSLTKWSDIWNATKYANSCCQNIDQSFPGFHGSEMWNPNTDLSEDCLYLNVWIPAPKPKNATVLIWIYGGGFQTGTSSLHVYDGKFLARVERVIVVSMNYRVGALGFLALPGNPEAPGNMGLFDQQLALQWVQKNIAAFGGNPKSVTLFGESAGAASVSLHLLSPGSHSLFTRAILQSGSGNAPWAVTSLYEARNRTLNLAKLTGCSRENETEIIKCLRNKDPQEILLNEAFVVPYGTPLSVNFGPTVDGDFLTDMPDILLELGQFKKTQILVGVNKDEGTAFLVYGAPGFSKDNNSIITRKEFQEGLKIFFPGVSEFGKESILFHYTDWVDDQRPENYREALGDVVGDYNFICPALEFTKKFSEWGNNAFFYYFEHRSSKLPWPEWMGVMHGYEIEFVFGLPLERRDNYTKAEEILSRSIVKRWANFAKYGNPNETQNNSTSWPVFKSTEQKYLTLNTESTRIMTKLRAQQCRFWTSFFPKVLEMTGNIDEAEWEWKAGFHRWNNYMMDWKNQFNDYTSKKESCVGL | enhanced cocaine hydrolase activity | four | 4.0 | 
Y332M (protein, Butyrylcholinesterase variant) EDDIIIATKNGKVRGMNLTVFGGTVTAFLGIPYAQPPLGRLRFKKPQSLTKWSDIWNATKYANSCCQNIDQSFPGFHGSEMWNPNTDLSEDCLYLNVWIPAPKPKNATVLIWIYGGGFQTGTSSLHVYDGKFLARVERVIVVSMNYRVGALGFLALPGNPEAPGNMGLFDQQLALQWVQKNIAAFGGNPKSVTLFGESAGAASVSLHLLSPGSHSLFTRAILQSGSFNAPWAVTSLYEARNRTLNLAKLTGCSRENETEIIKCLRNKDPQEILLNEAFVVPYGTPLSVNFGPTVDGDFLTDMPDILLELGQFKKTQILVGVNKDEGTAFLVMGAPGFSKDNNSIITRKEFQEGLKIFFPGVSEFGKESILFHYTDWVDDQRPENYREALGDVVGDYNFICPALEFTKKFSEWGNNAFFYYFEHRSSKLPWPEWMGVMHGYEIEFVFGLPLERRDNYTKAEEILSRSIVKRWANFAKYGNPNETQNNSTSWPVFKSTEQKYLTLNTESTRIMTKLRAQQCRFWTSFFPKVLEMTGNIDEAEWEWKAGFHRWNNYMMDWKNQFNDYTSKKESCVGL | enhanced cocaine hydrolase activity; also recorded: increased cocaine hydrolysis activity |  |  | cocaine hydrolysis activity compared to butyrylcholinesterase (in words) (listed as SEQ ID NO: 22): increased cocaine hydrolysis activity
V331L (protein, Butyrylcholinesterase variant) EDDIIIATKNGKVRGMNLTVFGGTVTAFLGIPYAQPPLGRLRFKKPQSLTKWSDIWNATKYANSCCQNIDQSFPGFHGSEMWNPNTDLSEDCLYLNVWIPAPKPKNATVLIWIYGGGFQTGTSSLHVYDGKFLARVERVIVVSMNYRVGALGFLALPGNPEAPGNMGLFDQQLALQWVQKNIAAFGGNPKSVTLFGESAGAASVSLHLLSPGSHSLFTRAILQSGSFNAPWAVTSLYEARNRTLNLAKLTGCSRENETEIIKCLRNKDPQEILLNEAFVVPYGTPLSVNFGPTVDGDFLTDMPDILLELGQFKKTQILVGVNKDEGTAFLLYGAPGFSKDNNSIITRKEFQEGLKIFFPGVSEFGKESILFHYTDWVDDQRPENYREALGDVVGDYNFICPALEFTKKFSEWGNNAFFYYFEHRSSKLPWPEWMGVMHGYEIEFVFGLPLERRDNYTKAEEILSRSIVKRWANFAKYGNPNETQNNSTSWPVFKSTEQKYLTLNTESTRIMTKLRAQQCRFWTSFFPKVLEMTGNIDEAEWEWKAGFHRWNNYMMDWKNQFNDYTSKKESCVGL | enhanced cocaine hydrolase activity; also recorded: increased cocaine hydrolysis activity |  |  | cocaine hydrolysis activity compared to butyrylcholinesterase (in words) (listed as SEQ ID NO: 26): increased cocaine hydrolysis activity
